B1: 30 (protein)
chain: MAYSGRWYEVASLKRGFAGEGQQDCHCTQGIYTPKEGGPEGAIKLEVDTFCVHGGPGGRLSGIQGSVSCADPLLLSYLPEFQTEMEMVEGFVAKCALRFDSLAFLPPEPYVVLRTDYTSYALVRGAKDRSFVQIYSRTPNPGAKFIAEQKAVLGQLGYPANDIVDTPQDCPEMAPQ
modifications: Micractinium conductrix
B2: SEQ ID NO. 30: PSC68250.1 lipocalin-like domain (partial), Micractinium conductrix (protein)
chain: B1 chain
modifications: Micractinium conductrix
notes: PSC68250.1 lipocalin-like domain (partial), Micractinium conductrix
B3: 1 (protein)
chain: MTSTEKKDMKAVKGLDLERYMGRWYEIASFPSRFQPKDGVDTRATYTLNPDGTVHVLNETWNGGKRGFIQGSAYKADPKSDEAKLKVKFFVPPFLPVIPVTGDYWVLYIDPEYQHAVIGQPSRSYLWILSRTAHMEEETYKQLVEKAVEEGYDVSKLHKTPQSDTPPESNTAPDDTKGVWWLKSIFGK
modifications: Cluster63 Unique
B4: SEQ ID NO. 1: Cluster63 Unique, artificial consensus sequence based on a family of homologous plant lipocalin sequences (protein)
chain: B3 chain
modifications: Cluster63 Unique
B5: SEQ ID NO. 121: odorant-binding protein 1a-like, Mus caroli (Ryukyu mouse) (protein, listed as Mus caroli)
chain: MVKFLLLELAFGLAHAQMYGPWKTIAIAADNVDKMEISGELRLYFHQITCEKECKKMNVTFYVDENGQCSLTTITGYLQDDGKTYRSQFQGDNHYATVRTTPENIVFYSENVDRAGRKTKLVYVVGKNGSGSLK
B6: 10 (protein)
chain: MHVSTRQPCGAAPTAWPAQRPRSSPRRLACSAVLRDDARGVLQQAGLKLAAAAAAVLLAAPLHAGAASMPANAPLPALPPAPFDIEQSKQSKLLFDPMAYSGRWYEVASLKRGFAGEGQQDCHCTQGIYTPKEGGPEGAIKLEVDTFCVHGGPGGRLSGIQGSVSCADPLLLSYLPEFQTEMEMVEGFVAKCALRFDSLAFLPPEPYVVLRTDYTSYALVRGAKDRSFVQIYSRTPNPGAKFIAEQKAVLGQLGYPANDIVDTPQDCPEMAPQAMMAAMNRGMSSTPTMPASTPPALAMAGYDLGPAAVVLGEEAPAPVKGIAFDRLRNPLESLKNVFSLFN
modifications: Micractinium conductrix
B7: SEQ ID NO. 10: PSC68250.1 lipocalin-like domain, Micractinium conductrix (green algae) (protein)
chain: B6 chain
modifications: Micractinium conductrix
B8: 33 (protein, listed as Macleaya cordata)
chain: MIRYSGRWFEVASLKRGFAGSGQEDCHCTQGVYTFDSEAPAIQVDTFCVHGGPDGYITGIRGKVQCLSEEDLEKNETDLEKRVMIREKCYLRFPTLPFIPKEPYDVIATDYDNFALVSGAKDTSFIQIYSRTPNPGPEFIEKYKSYLGNYGYDPSMIKDTPQ
B9: SEQ ID NO. 33: OVA10565.1 Lipocalin/cytosolic fatty-acid binding domain (partial), Macleaya cordata (protein, listed as Macleaya cordata)
chain: B8 chain
B10: SEQ ID NO. 148: Odorant-binding protein, partial, Heterocephalus glaber (naked mole-rat) (protein)
chain: MINGDWCSIYIAADNVEKIEERGELRAYFCHIECQDECRNLSGGDRIMRNKHCCVGLSFRLDGVCQEFTVVGVKDEKSGVYITDYVGKNYFTVVESTEYITLFSNIIVDEKGTKMNVVLVAAKRDSLTEKEKQKFAQLAEEKGIPTENIRNVIAT
modifications: Heterocephalus glaber

Key:
[1] = Ligand binding assay by ANS displacement, THC; settings: 2 μM protein, 20 μM ANS, 33 μM ligand, 20° C.; for binding to THC by ANS displacement (relative change in fluorescence): FIG. 8; for Purification Status (binding to THC): Table 3
[2] = Ligand binding assay by ANS displacement, CBD; settings: 2 μM protein, 20 μM ANS, 33 μM ligand, 20° C.; for binding to CBD by ANS displacement (relative change in fluorescence): FIG. 8; for Purification Status (binding to CBD): Table 3

Molecule	binding to THC by ANS displacement (relative change in fluorescence) [1]	binding to CBD by ANS displacement (relative change in fluorescence) [2]	Purification Status (binding to THC) [1]	Purification Status (binding to CBD) [2]	binding to THC by ANS displacement (relative change in fluorescence) ([1]; listed as OBP2)	binding to CBD by ANS displacement (relative change in fluorescence) ([2]; listed as OBP2)
B1	bind to both THC and CBD	bind to both THC and CBD	–	–	–	–
B2	binds to THC better than full length	–	Binds to CBD	Binds to CBD	–	–
B3	bind to both THC and CBD	bind to both THC and CBD	–	–	–	–
B4	–	–	Binds to CBD	Binds to CBD	–	–
B5	–	–	Binds to THC	Binds to THC	highest binding affinity	highest binding affinity
B6	bind to both THC and CBD	bind to both THC and CBD	–	–	–	–
B7	–	–	Binds to CBD	Binds to CBD	–	–
B8	bind to both THC and CBD	bind to both THC and CBD	–	–	–	–
B9	–	–	Binds to CBD	Binds to CBD	–	–
B10	–	–	Binds to THC	Binds to THC	–	–

Source: patent US20220151977A1, “Generation Of Water-Soluble Cannabinoids Utilizing Protein Cannabinoid-Carriers” (Trait Biosciences, Inc., priority 2019, published 2022)
